Earlier results as cited in PMC8525647.

Target: RAG2 (Homo sapiens) (UniProt P55895)
Chain of UniProt P55895 (P55895 whole entry): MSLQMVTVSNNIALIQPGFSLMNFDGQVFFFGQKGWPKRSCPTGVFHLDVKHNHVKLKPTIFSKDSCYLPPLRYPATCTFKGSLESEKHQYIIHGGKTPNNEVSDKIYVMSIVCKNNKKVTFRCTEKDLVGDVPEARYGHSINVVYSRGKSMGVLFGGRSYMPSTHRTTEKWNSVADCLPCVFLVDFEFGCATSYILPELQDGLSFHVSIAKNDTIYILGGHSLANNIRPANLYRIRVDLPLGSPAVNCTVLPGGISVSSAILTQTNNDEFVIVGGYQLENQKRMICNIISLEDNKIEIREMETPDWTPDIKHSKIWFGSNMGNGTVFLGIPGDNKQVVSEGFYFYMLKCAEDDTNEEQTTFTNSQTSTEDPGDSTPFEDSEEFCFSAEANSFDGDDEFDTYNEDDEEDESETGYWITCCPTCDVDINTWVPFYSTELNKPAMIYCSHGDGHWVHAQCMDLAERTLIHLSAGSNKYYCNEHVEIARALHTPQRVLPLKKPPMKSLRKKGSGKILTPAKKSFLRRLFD

## RAG1 (from UniProt P15918)
  Kd: 400 nM
